Results on two molecules are retold here after patent US20250304713A1, “COMBINATION IMMUNOTHERAPY COMPOSITIONS AND METHODS OF USE THEREOF” (THE PENN STATE RESEARCH FOUNDATION, priority 2022, published 2025).

The subject of one data set is 9464D-GD2 cells. Description: Cell viability, CellTiter-Glo. Type of data set: cell-based, mouse. Conditions: 0.1 μM tipifarnib; 24, 48, 72 h. On the procedure: 9464D-GD2 cells were seeded in a white, opaque 96-well plate. The following day, cells were treated with increasing doses of tipifarnib, and cell viability was measured at 24, 48 and 72 hours post-treatment using the CellTiter-Glo® Luminescent Cell Viability Assay (Promega, G7573) according to manufacturer's instructions. Microplate luminescence was measured using a CLARIOstar (BMG Labtech) plate reader. All data were normalized to non-treated controls. 9464D cells or 9464D crRab27a cells were plated at a density of 5000 cells/well in a 96-well plate and monitored for confluence using the Incucyte S3 μLive Cell Imaging System (Sartorius). The percent cell confluence was quantified using Incucyte Basic Cell Analysis package (Sartorius).
Background: ATP-based viability assays read luminescence as a measure of living cells.

A further data set has as its system splenic NK cells. Description: Flow cytometry of splenic NK cell subpopulations (maturation). It is filed as in vivo, mouse. On the procedure: (§1) Murine tumors and spleens were harvested at the experimental endpoint and mechanically disassociated. Tumors were further digested with tumor digestion buffer ([…] Collagenase Type I (Thermo Fisher, 17018029) and 2000 Units/ml DNase (Sigma-Aldrich, DN25-100MG) in HBSS buffer at room temperature for 1 hour. Dissociated tumor cells and spleen cells were passed through a 70 μm cell strainer (Falcon BD, 352350), pelleted, and washed once with PBS supplemented with 1% FBS. Red blood cells were lysed with RBC lysis buffer (0.0155 M NH4Cl, 1.2 mM NaHCO3, 0.01 mM Na2EDTA, pH 7.4 in distilled water) for 3 minutes on ice and neutralized with PBS supplemented with 10% FBS. Cells were centrifuged and resuspended in FACS buffer to obtain single cell suspensions.
(§2) All animal studies were performed according to guidelines established by the Institutional Animal Care and Use Committee (IACUC) at the Penn State College of Medicine (Hershey, PA). An immunocompetent mouse model of neuroblastoma was generated by subcutaneously injecting 1×10^6 9464D-GD2 cells in a 50:50 mixture of DMEM and Matrigel (Corning, 354234) into C57BL/6J mice (8- to 10-week-old, JAX 000664) with male and female mice represented at an equal ratio. One week following tumor cell inoculation, mice were randomized into treatment groups. Where indicated, mice were treated twice-weekly by tail-vein injection with PBS (100 μL), dinutuximab ([…] in 100 μL PBS), purified sEVs from 9464D-GD2 cells ([…] in 100 μL PBS), or the combination of dinutuximab and sEVs. Where indicated, tipifarnib (25 mg/kg) or an equivalent volume of vehicle was administered twice daily by oral gavage. Primary tumor growth was monitored by measuring tumor volume using calipers (volume=π(length*width^2)/6). At the experimental endpoint, mice were euthanized, and tumor, blood, spleen and bone marrow were harvested for ex vivo analysis. Endpoint tumor volume was calculated by measuring tumors using calipers (volume=π(length*width*height)/6). […]

The test system of data set [1] is tumor-infiltrating NK cells, T-cells and tumor-associated macrophages in 9464D-GD2 tumors. Kind of data set: Flow cytometry of tumor-infiltrating immune cells (NK cells, T-cells, TAMs). It is filed as in vivo, mouse. On the procedure: as §1
(§3) All animal studies were performed according to guidelines established by the Institutional Animal Care and Use Committee (IACUC) at the Penn State College of Medicine (Hershey, PA). An immunocompetent mouse model of neuroblastoma was generated by subcutaneously injecting 1×10^6 9464D-GD2 cells in a 50:50 mixture of DMEM and Matrigel (Corning, 354234) into C57BL/6J mice (8- to 10-week-old, JAX 000664) with male and female mice represented at an equal ratio. One week following tumor cell inoculation, mice were randomized into treatment groups. Where indicated, mice were treated twice-weekly by tail-vein injection with PBS (100 μL), dinutuximab ([…] in 100 μL PBS), purified sEVs from 9464D-GD2 cells ([…] in 100 μL PBS), or the combination of dinutuximab and sEVs. Where indicated, tipifarnib (25 mg/kg) or an equivalent volume of vehicle was administered twice daily by oral gavage. Primary tumor growth was monitored by measuring tumor volume using calipers (volume=π(length*width^2)/6). At the experimental endpoint, mice were euthanized, and tumor, blood, spleen and bone marrow were harvested for ex vivo analysis. Endpoint tumor volume was calculated by measuring tumors using calipers (volume=π(length*width*height)/6).
For cell surface staining, approximately 1×10^6 cells were stained with pre-mixed antibody cocktail panels (Table 1) in 100 μL FACS buffer (1% FBS, 0.2% NaN3 in PBS) for 30 minutes on ice. Cells were washed twice with FACS buffer and fixed with 2% paraformaldehyde (Fisher Scientific, 50-980-487) for 15 minutes. Fixed cells were washed once with PBS and resuspended in 0.5 mL FACS buffer for flow cytometric analysis using a LSR II or Symphony flow cytometer (BD Biosciences). Compensation was performed using UltraComp eBeads™ compensation beads (Invitrogen). FlowJo™ v10 (FlowJo, LLC) software was used for data analysis.
(A flow cytometer gives signals particle by particle.)

A further data set deals with 9464D-GD2 tumors. Kind of data set: 9464D-GD2 syngeneic subcutaneous neuroblastoma model, tumor growth, volume and weight. It is filed as in vivo, mouse. On the procedure: as §3
In data set [2] the test system is NK cells (NK1.1+CD3-) in blood. Description: Flow cytometry of blood NK cells of tumor-bearing mice. It is filed as in vivo, mouse. On the procedure:
as §2

Where [3] appears, read: day 30, treatment as FIG. 1D (FIG. 3C).
Setting [4] is: day 24, treatment as FIG. 4D (FIG. 5A).

In the case of `Cn1cncc1[C@@](N)(c1ccc(Cl)cc1)c1ccc2c(c1)c(-c1cccc(Cl)c1)cc(=O)n2C` [tipifarnib], the “cytotoxicity (cell viability)” value with 9464D-GD2 cells was “absence of cytotoxicity”.

B1: dinutuximab (antibody, chains of the INN, looked up, V domains shown)
VH: EVQLLQSGPELEKPGASVMISCKASGSSFTGYNMNWVRQNIGKSLEWIGAIDPYYGGTSYNQKFKGRATLTVDKSSSTAYMHLKSLTSEDSAVYYCVSGMEYWGQGTSVTVSS
VL: EIVMTQSPATLSVSPGERATLSCRSSQSLVHRNGNTYLHWYLQKPGQSPKLLIHKVSNRFSGVPDRFSGSGSGTDFTLKISRVEAEDLGVYFCSQSTHVPPLTFGAGTKLELK
notes: chimeric monoclonal antibody against the disialoganglioside GD2
On to B1, for which the “percentage of mature NK cells in the spleen (CD27-CD11b+)” value in the data set with splenic NK cells (day 24, treatment as FIG. 4D, vs control or tipifarnib alone (FIG. 5C)) was “significantly increased the percentage of mature NK cells in the spleen”. Besides, in the data set with splenic NK cells (setting [3]), the “percentage of mature splenic NK cells (CD27-CD11b+)” value is listed as “increased the percentage of mature splenic NK cells” and the “percentage of splenic NK cells with immature phenotype (CD27+CD11b-)” value is “significantly decreased the percentage of splenic NK cells with an immature phenotype”. In data set [1] (setting [4]), the “TAM population (CD11b+F4/80+)” value is given as “decreasing TAMs”; the “tumor-infiltrating NK cells (NK1.1+CD3-)” value is “enhancing the mobilization of NK cells and percentages of tumor-infiltrating NK cells and T-cells”; the “tumor-infiltrating T-cells (CD3+NK1.1-)” value is “enhancing the mobilization of NK cells and percentages of tumor-infiltrating NK cells and T-cells”. The “tumor-associated macrophage (TAM) population (CD11b+F4/80+)” value in data set [1] (day 30, treatment as FIG. 1D (FIG. 2E bottom)) is listed as “significantly decreased the TAM population”. The “tumor-infiltrating NK cell population (NK1.1+CD3-)” value in data set [1] (day 30, treatment as FIG. 1D (FIG. 2E top)) is “significantly increased the tumor-infiltrating NK cell population”. Also, the “tumor growth (tumor volume over time)” value in the data set with 9464D-GD2 tumors (dinutuximab 1.25 mg/kg and/or 9464D-GD2 sEVs 20 μg, tail vein twice weekly from one week post-inoculation, to day 30, vs PBS (FIG. 1E)) was “dramatically suppressed tumor growth”. The “tumor growth and weight, sEV rescue experiment” value in the data set with 9464D-GD2 tumors (dinutuximab and/or tipifarnib with or without sEVs, day 24 (FIG. 6B-D)) is “mild anti-tumor activity alone”. For the same molecule, the “level of circulating NK cells (mobilization)” value in data set [2] (day 24, treatment as FIG. 4D (FIG. 5B)) is recorded as “enhancing the mobilization of NK cells”. The “percentage of serum (blood) NK cells, NK cell mobilization” value in data set [2] (day 30, treatment as FIG. 1D (FIG. 2F)) is “significant increase in the percentage of serum NK cells”.
